Molecular target: endogenous α-SYN from human postmortem brain (substantia nigra) (human (endogenous in postmortem brain)) (UniProt P37840)

percent of detected α-SYN that is oligomeric (PD brain): 56%
percent of detected α-SYN that is oligomeric (control brain): 23%
Substance: endogenous α-SYN from human postmortem brain (substantia nigra) (from UniProt P37840 1-140) (natural protein)

From doi:10.1101/188169
